# Test results: patent publication US20180155451A1 (published 2018)
# T1: FcγRIIb extracellular domain with C-terminal His tag (human, UniProt P31994 43-217)
# T1 construct: extracellular domain; also called FcgRIIb; 2b; not shown: His tag at the C terminus
# T1 sequence (looked up): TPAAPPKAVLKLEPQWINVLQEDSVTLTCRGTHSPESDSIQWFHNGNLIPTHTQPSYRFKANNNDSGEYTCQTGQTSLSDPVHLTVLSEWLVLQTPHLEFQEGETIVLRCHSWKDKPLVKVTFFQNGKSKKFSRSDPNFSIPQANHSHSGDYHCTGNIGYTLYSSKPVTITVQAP
# B1: GpH7-A5/GpH7-B3 variant I332_10E/GpL16-k0 (antibody, human IgG1, kappa)
# heavy 1: not shown
# heavy 2: not shown
# light: DIVMTQSPLSLPVTPGEPASISCQASESLVHSNRNTYLHWYLQKPGQSPQLLIYKVSNRFSGVPDRFSGSGSGTDFTLKISRVEAEDVGVYYCSQNTHVPPTFGQGTKVEIERTVAAPSVFIFPPSDEQLKSGTASVVCLLNNFYPREAKVQWKVDNALQSGNSQESVTEQDSKDSTYSLSSTLTLSKADYEKHKVYACEVTHQGLSSPVTKSFNRGEC
# notes: position is EU numbering; also called He Ab
# B2: GpH7-A5/GpH7-B3 variant I332_12R/GpL16-k0 (antibody, human IgG1, kappa)
# heavy 1: not shown
# heavy 2: not shown
# light: B1 light
# notes: as for B1
# B3: GpH7-A5/GpH7-B3 variant K334_01G/GpL16-k0 (antibody, human IgG1, kappa)
# heavy 1: not shown
# heavy 2: not shown
# light: B1 light
# notes: as for B1
# B4: GpH7-A5/GpH7-B3 variant K334_02A/GpL16-k0 (antibody, human IgG1, kappa)
# heavy 1: not shown
# heavy 2: not shown
# light: B1 light
# notes: as for B1
# B5: GpH7-A5/GpH7-B3 variant K334_04F/GpL16-k0 (antibody, human IgG1, kappa)
# heavy 1: not shown
# heavy 2: not shown
# light: B1 light
# notes: as for B1
# B6: GpH7-A5/GpH7-B3 variant K334_05P/GpL16-k0 (antibody, human IgG1, kappa)
# heavy 1: not shown
# heavy 2: not shown
# light: B1 light
# notes: as for B1
# B7: GpH7-A5/GpH7-B3 variant K334_06M/GpL16-k0 (antibody, human IgG1, kappa)
# heavy 1: not shown
# heavy 2: not shown
# light: B1 light
# notes: as for B1
# B8: GpH7-A5/GpH7-B3 variant K334_07I/GpL16-k0 (antibody, human IgG1, kappa)
# heavy 1: not shown
# heavy 2: not shown
# light: B1 light
# notes: as for B1
# B9: GpH7-A5/GpH7-B3 variant K334_08L/GpL16-k0 (antibody, human IgG1, kappa)
# heavy 1: not shown
# heavy 2: not shown
# light: B1 light
# notes: as for B1
# B10: GpH7-A5/GpH7-B3 variant K334_09D/GpL16-k0 (antibody, human IgG1, kappa)
# heavy 1: not shown
# heavy 2: not shown
# light: B1 light
# notes: as for B1
# B11: GpH7-A5/GpH7-B3 variant P329_02A/GpL16-k0 (antibody, human IgG1, kappa)
# heavy 1: not shown
# heavy 2: not shown
# light: B1 light
# notes: as for B1
# B12: GpH7-A5/GpH7-B3 variant P329_11K/GpL16-k0 (antibody, human IgG1, kappa)
# heavy 1: not shown
# heavy 2: not shown
# light: B1 light
# notes: as for B1
# B13: GpH7-A5/GpH7-B3 variant P329_12R/GpL16-k0 (antibody, human IgG1, kappa)
# heavy 1: not shown
# heavy 2: not shown
# light: B1 light
# notes: as for B1
# B14: GpH7-A5/GpH7-B3 variant Q295_13S/GpL16-k0 (antibody, human IgG1, kappa)
# heavy 1: not shown
# heavy 2: not shown
# light: B1 light
# notes: as for B1
# B15: GpH7-A5/GpH7-B3 variant Q295_14T/GpL16-k0 (antibody, human IgG1, kappa)
# heavy 1: not shown
# heavy 2: not shown
# light: B1 light
# notes: as for B1
# B16: GpH7-A5/GpH7-B3 variant Q295_16H/GpL16-k0 (antibody, human IgG1, kappa)
# heavy 1: not shown
# heavy 2: not shown
# light: B1 light
# notes: as for B1
# B17: GpH7-A5/GpH7-B3 variant Q295_18N/GpL16-k0 (antibody, human IgG1, kappa)
# heavy 1: not shown
# heavy 2: not shown
# light: B1 light
# notes: as for B1
# B18: GpH7-A5/GpH7-B3 variant S298_03V/GpL16-k0 (antibody, human IgG1, kappa)
# heavy 1: not shown
# heavy 2: not shown
# light: B1 light
# notes: as for B1
# Biological target: T2, FcγRIIIa extracellular domain with C-terminal His tag (human, UniProt P08637 17-208)
# T2 construct: extracellular domain; also called FcgRIIIa; 3a; not shown: His tag at the C terminus
# Experiment: SPR (Biacore); ratio of He/Con_3a (FcγRIIIa) to He/Con_2b (FcγRIIb)
# Procedure: (§1) The heterodimerized antibodies He Abs in which one of the H chains was introduced with an alteration were assayed for their binding activities to each activating FcγR and inhibitory FcγR according to the method described in Example 4. […] The activating FcγRs in FIGS. 26, 27, 28, and 29 are FcγRIa, FcγRIIa (R), FcγRIIa (H), and FcγRIIIa, respectively.
# (§2) Analysis of interaction between objective antibody and the FcγR was carried out using Biacore T100 (GE Healthcare). HBS-EP+ (GE Healthcare) was used as the running buffer, and the measurement temperature was set to 25° C. Chips produced by immobilizing the antigen peptide by the amine coupling method to a Series S Sencor Chip CM5 (GE Healthcare), or alternatively, chips produced by allowing preliminarily biotinylated antigen peptides to interact with and immobilize onto a Series S Sensor Chip SA (certified) (GE Healthcare) were used. Antibodies of interest were captured onto an antigen peptide-immobilized chip, and allowed to interact to each FcγR diluted with running buffer. To regenerate and repeatedly use the chip, the antibodies captured on the chip were washed off by reacting 10 mM glycine-HCl, pH 1.5.
# T2 sequence (P08637 17-208): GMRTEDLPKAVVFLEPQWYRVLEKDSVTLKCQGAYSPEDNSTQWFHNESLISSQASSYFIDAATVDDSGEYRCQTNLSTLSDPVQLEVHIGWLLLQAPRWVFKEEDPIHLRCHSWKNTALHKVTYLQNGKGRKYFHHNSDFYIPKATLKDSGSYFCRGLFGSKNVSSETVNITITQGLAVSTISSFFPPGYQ
row,Binder,He_3a/2b (IIIa/IIb) [ratio]
1,B1,1.63
2,B2,1.55
3,B3,1.31
4,B4,1.37
5,B5,1.33
6,B6,1.27
7,B7,1.33
8,B8,1.27
9,B9,1.35
10,B10,1.69
11,B11,1.39
12,B12,1.76
13,B13,1.52
14,B14,1.51
15,B15,1.72
16,B16,1.22
17,B17,1.26
18,B18,1.69

# Biological target: T1, FcγRIIb extracellular domain with …
# Experiment: SPR (Biacore), antibody captured, FcγR as analyte; He Ab binding / GpH7-A5/GpH7-B3/GpL16-k0 binding x 100
# Procedure: as §1, §2
row,Binder,He/Con_2b (IIb binding)
1,B1,"142 relative, control = 100"
2,B2,"48.9 relative, control = 100"
3,B3,"92.5 relative, control = 100"
4,B4,"108 relative, control = 100"
5,B5,"111 relative, control = 100"
6,B6,"105 relative, control = 100"
7,B7,"109 relative, control = 100"
8,B8,"119 relative, control = 100"
9,B9,"106 relative, control = 100"
10,B10,"94.8 relative, control = 100"
11,B11,"40.5 relative, control = 100"
12,B12,"16.9 relative, control = 100"
13,B13,"17.6 relative, control = 100"
14,B14,"56.9 relative, control = 100"
15,B15,"66.8 relative, control = 100"
16,B16,"62.7 relative, control = 100"
17,B17,"64.9 relative, control = 100"
18,B18,"64.5 relative, control = 100"

# Biological target: T2, FcγRIIIa extracellular domain with …
# Experiment: as above
# Procedure: as §1, §2
row,Binder,He/Con_3a (IIIa binding)
1,B1,"233 relative, control = 100"
2,B2,"75.9 relative, control = 100"
3,B3,"121 relative, control = 100"
4,B4,"147 relative, control = 100"
5,B5,"148 relative, control = 100"
6,B6,"134 relative, control = 100"
7,B7,"144 relative, control = 100"
8,B8,"151 relative, control = 100"
9,B9,"143 relative, control = 100"
10,B10,"160 relative, control = 100"
11,B11,"56.4 relative, control = 100"
12,B12,"29.6 relative, control = 100"
13,B13,"26.7 relative, control = 100"
14,B14,"86.1 relative, control = 100"
15,B15,"115 relative, control = 100"
16,B16,"76.4 relative, control = 100"
17,B17,"81.6 relative, control = 100"
18,B18,"109 relative, control = 100"
